The values that follow come from paper PMC6555819, “Comprehensive study of nuclear receptor DNA binding provides a revised framework for understanding receptor specificity”.

Residue numbers refer to the chain shown, from its start.

To fix the notation:
B1: NRC3_wobSeed100_DR4_A24T_o1 (dsDNA)
DNA 1: GCCCTACTGGGCCACGAAAGGTCTTTGATTCAGTGAGCGATTGACAGCGTAGAATGAAGG
DNA 2: CCTTCATTCTACGCTGTCAATCGCTCACTGAATCAAAGACCTTTCGTGGCCCAGTAGGGC
B2: NRC3_random_hg19_353_o1 (dsDNA)
DNA 1: GCATAGAACTTAACTACCACCTCTCATTACCTGGAGGCGATTGACAGCGTAGAATGAAGG
DNA 2: CCTTCATTCTACGCTGTCAATCGCCTCCAGGTAATGAGAGGTGGTAGTTAAGTTCTATGC
B3: NRC3_random_hg19_191_o1 (dsDNA)
DNA 1: GCAGGAGAGACAGAGGAAGAGATGTGACATCAGAAGGCGATTGACAGCGTAGAATGAAGG
DNA 2: CCTTCATTCTACGCTGTCAATCGCCTTCTGATGTCACATCTCTTCCTCTGTCTCTCCTGC
B4: NRC3_wobSeed125_DR5_G10C_o1 (dsDNA)
DNA 1: GCCCTTACGCGTCACTGACAGGTTATAGCATTTGGAGCGATTGACAGCGTAGAATGAAGG
DNA 2: CCTTCATTCTACGCTGTCAATCGCTCCAAATGCTATAACCTGTCAGTGACGCGTAAGGGC
B5: NRC3_wobSeed125_DR5_G11C_o1 (dsDNA)
DNA 1: B4 DNA 1 with C10G, G11C
DNA 2: B4 DNA 2 with C50G, G51C
B6: NRC3_wobSeed114_DR4_G11A_o1 (dsDNA)
DNA 1: GCAATACAGGATCATCGTAGGCCAGAGTACGCACAGGCGATTGACAGCGTAGAATGAAGG
DNA 2: CCTTCATTCTACGCTGTCAATCGCCTGTGCGTACTCTGGCCTACGATGATCCTGTATTGC
B7: NRC3_wobSeed89_DR3_C26G_o1 (dsDNA)
DNA 1: GCCTATGTAGGTTAAGGGGGTCATTGAGTTTGAAAGGCGATTGACAGCGTAGAATGAAGG
DNA 2: CCTTCATTCTACGCTGTCAATCGCCTTTCAAACTCAATGACCCCCTTAACCTACATAGGC
B8: NRC3_random_hg19_125_o1 (dsDNA)
DNA 1: GCCAACCTACCAAACCATAACCAGTGTGTTTGCTCCGCGATTGACAGCGTAGAATGAAGG
DNA 2: CCTTCATTCTACGCTGTCAATCGCGGAGCAAACACACTGGTTATGGTTTGGTAGGTTGGC
B9: NRC3_random_hg19_154_o1 (dsDNA)
DNA 1: GCAAGCATAGCTTTGAGAGCAGTAAAGTGGTTCATTGCGATTGACAGCGTAGAATGAAGG
DNA 2: CCTTCATTCTACGCTGTCAATCGCAATGAACCACTTTACTGCTCTCAAAGCTATGCTTGC
B10: NRC3_random_hg19_17_o1 (dsDNA)
DNA 1: GCCTGCAGTTTCACTTTGCATGTCTTCTTTCCTCAAGCGATTGACAGCGTAGAATGAAGG
DNA 2: CCTTCATTCTACGCTGTCAATCGCTTGAGGAAAGAAGACATGCAAAGTGAAACTGCAGGC
B11: NRC3_random_hg19_274_o1 (dsDNA)
DNA 1: GCTTCGTGCCCTTCCCTTGGACAGACTCCCTTGGCAGCGATTGACAGCGTAGAATGAAGG
DNA 2: CCTTCATTCTACGCTGTCAATCGCTGCCAAGGGAGTCTGTCCAAGGGAAGGGCACGAAGC
B12: NRC3_wobSeed58_DR2_C13G_o1 (dsDNA)
DNA 1: GCATCGAAAGGTGGTGAGGTGAGTATACAGAAAGGCGCGATTGACAGCGTAGAATGAAGG
DNA 2: CCTTCATTCTACGCTGTCAATCGCGCCTTTCTGTATACTCACCTCACCACCTTTCGATGC
B13: NRC3_wobSeed130_DR5_G14T_o1 (dsDNA)
DNA 1: GCCTCGAAAGGTCTTGCTCAGGTGAGTATACCAAACGCGATTGACAGCGTAGAATGAAGG
DNA 2: CCTTCATTCTACGCTGTCAATCGCGTTTGGTATACTCACCTGAGCAAGACCTTTCGAGGC
B14: NRC3_random_hg19_335_o1 (dsDNA)
DNA 1: GCATCTATGTGCATATGGAAGAAAGGAATGCAAGATGCGATTGACAGCGTAGAATGAAGG
DNA 2: CCTTCATTCTACGCTGTCAATCGCATCTTGCATTCCTTTCTTCCATATGCACATAGATGC
B15: NRC3_random_hg19_409_o1 (dsDNA)
DNA 1: GCGACTGCACTCCAGCCTGGGTGACACAACAAGACTGCGATTGACAGCGTAGAATGAAGG
DNA 2: CCTTCATTCTACGCTGTCAATCGCAGTCTTGTTGTGTCACCCAGGCTGGAGTGCAGTCGC
B16: NRC3_random_hg19_247_o1 (dsDNA)
DNA 1: GCGCATGCCACAGGACTGGTAGGCAGCTCCATCTGCGCGATTGACAGCGTAGAATGAAGG
DNA 2: CCTTCATTCTACGCTGTCAATCGCGCAGATGGAGCTGCCTACCAGTCCTGTGGCATGCGC
B17: NRC3_random_hg19_260_o1 (dsDNA)
DNA 1: GCGGAAGTCCTCTTTGCCACATTTCCAACAGATGGCGCGATTGACAGCGTAGAATGAAGG
DNA 2: CCTTCATTCTACGCTGTCAATCGCGCCATCTGTTGGAAATGTGGCAAAGAGGACTTCCGC
B18: NRC3_random_hg19_161_o1 (dsDNA)
DNA 1: GCTCTGTGGCCTCGGCTCTCCAGGACTCGGAGGCTCGCGATTGACAGCGTAGAATGAAGG
DNA 2: CCTTCATTCTACGCTGTCAATCGCGAGCCTCCGAGTCCTGGAGAGCCGAGGCCACAGAGC
B19: NRC3_random_hg19_438_o1 (dsDNA)
DNA 1: GCTGTCGCCATCAAGCTACCATTGACTTTCTTCACAGCGATTGACAGCGTAGAATGAAGG
DNA 2: CCTTCATTCTACGCTGTCAATCGCTGTGAAGAAAGTCAATGGTAGCTTGATGGCGACAGC
B20: NRC3_random_hg19_251_o1 (dsDNA)
DNA 1: GCCTGTGGAATCCAACATGCCAAATGCTTGCTTGAGGCGATTGACAGCGTAGAATGAAGG
DNA 2: CCTTCATTCTACGCTGTCAATCGCCTCAAGCAAGCATTTGGCATGTTGGATTCCACAGGC
B21: NRC3_random_hg19_3_o1 (dsDNA)
DNA 1: GCGCCAGAGGTGGAATGATATGATATGTCTCTGTGTGCGATTGACAGCGTAGAATGAAGG
DNA 2: CCTTCATTCTACGCTGTCAATCGCACACAGAGACATATCATATCATTCCACCTCTGGCGC
B22: NRC3_random_hg19_30_o1 (dsDNA)
DNA 1: GCTGGAATGCAGTGGCACGATCACACATCACTGCAAGCGATTGACAGCGTAGAATGAAGG
DNA 2: CCTTCATTCTACGCTGTCAATCGCTTGCAGTGATGTGTGATCGTGCCACTGCATTCCAGC
B23: NRC3_random_hg19_115_o1 (dsDNA)
DNA 1: GCATCACCTGAGGCCAGGAATTCGAACCAGCATGGCGCGATTGACAGCGTAGAATGAAGG
DNA 2: CCTTCATTCTACGCTGTCAATCGCGCCATGCTGGTTCGAATTCCTGGCCTCAGGTGATGC
B24: NRC3_random_hg19_370_o1 (dsDNA)
DNA 1: GCTTTCTTTCTCTCTTGTCTGATTGCTCTGGCTAGAGCGATTGACAGCGTAGAATGAAGG
DNA 2: CCTTCATTCTACGCTGTCAATCGCTCTAGCCAGAGCAATCAGACAAGAGAGAAAGAAAGC
B25: NRC3_wobSeed124_DR5_C13G_o1 (dsDNA)
DNA 1: GCCCTACTGGGCGATTCAGAGGTCATTGATCATATGGCGATTGACAGCGTAGAATGAAGG
DNA 2: CCTTCATTCTACGCTGTCAATCGCCATATGATCAATGACCTCTGAATCGCCCAGTAGGGC
B26: NRC3_wobSeed18_DR0_C13A_o1 (dsDNA)
DNA 1: GCGATACAGGGTAAAGGCCAGAGTACGCGTATTGATGCGATTGACAGCGTAGAATGAAGG
DNA 2: CCTTCATTCTACGCTGTCAATCGCATCAATACGCGTACTCTGGCCTTTACCCTGTATCGC
B27: NRC3_wobSeed98_DR4_G20T_o1 (dsDNA)
DNA 1: GCACTAGTTGGTCAGCTGATGTCACACACAATTCGGGCGATTGACAGCGTAGAATGAAGG
DNA 2: CCTTCATTCTACGCTGTCAATCGCCCGAATTGTGTGTGACATCAGCTGACCAACTAGTGC
B28: NRC3_wobSeed93_DR3_T12A_o1 (dsDNA)
DNA 1: GCAGTCAAAGTACATCTAGGTAACGTAAGATATGCTGCGATTGACAGCGTAGAATGAAGG
DNA 2: CCTTCATTCTACGCTGTCAATCGCAGCATATCTTACGTTACCTAGATGTACTTTGACTGC
B29: NRC3_random_hg19_337_o1 (dsDNA)
DNA 1: GCGTATTGAGCATCTATGATCTGCCAGTTAGGCTGCGCGATTGACAGCGTAGAATGAAGG
DNA 2: CCTTCATTCTACGCTGTCAATCGCGCAGCCTAACTGGCAGATCATAGATGCTCAATACGC
B30: NRC3_random_hg19_461_o1 (dsDNA)
DNA 1: GCGCCTGACTCCAGCCCACAGGCTGGGAGTGGAAGTGCGATTGACAGCGTAGAATGAAGG
DNA 2: CCTTCATTCTACGCTGTCAATCGCACTTCCACTCCCAGCCTGTGGGCTGGAGTCAGGCGC

PPARa:RXRa, sequence (Q07869 whole entry, chain 1 of 2): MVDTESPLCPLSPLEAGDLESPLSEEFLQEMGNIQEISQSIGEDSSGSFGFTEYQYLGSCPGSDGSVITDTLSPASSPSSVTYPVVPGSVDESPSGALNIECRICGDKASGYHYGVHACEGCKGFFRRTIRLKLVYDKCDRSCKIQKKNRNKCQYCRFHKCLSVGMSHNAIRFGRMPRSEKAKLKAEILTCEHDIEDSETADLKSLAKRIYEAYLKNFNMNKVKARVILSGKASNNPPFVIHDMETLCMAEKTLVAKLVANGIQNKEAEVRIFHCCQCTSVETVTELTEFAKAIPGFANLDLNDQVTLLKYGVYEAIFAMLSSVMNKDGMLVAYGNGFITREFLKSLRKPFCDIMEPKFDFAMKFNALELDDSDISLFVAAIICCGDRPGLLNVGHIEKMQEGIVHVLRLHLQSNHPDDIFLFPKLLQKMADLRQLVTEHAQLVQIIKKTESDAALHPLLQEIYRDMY
PPARa:RXRa, sequence (P19793 whole entry, chain 2 of 2): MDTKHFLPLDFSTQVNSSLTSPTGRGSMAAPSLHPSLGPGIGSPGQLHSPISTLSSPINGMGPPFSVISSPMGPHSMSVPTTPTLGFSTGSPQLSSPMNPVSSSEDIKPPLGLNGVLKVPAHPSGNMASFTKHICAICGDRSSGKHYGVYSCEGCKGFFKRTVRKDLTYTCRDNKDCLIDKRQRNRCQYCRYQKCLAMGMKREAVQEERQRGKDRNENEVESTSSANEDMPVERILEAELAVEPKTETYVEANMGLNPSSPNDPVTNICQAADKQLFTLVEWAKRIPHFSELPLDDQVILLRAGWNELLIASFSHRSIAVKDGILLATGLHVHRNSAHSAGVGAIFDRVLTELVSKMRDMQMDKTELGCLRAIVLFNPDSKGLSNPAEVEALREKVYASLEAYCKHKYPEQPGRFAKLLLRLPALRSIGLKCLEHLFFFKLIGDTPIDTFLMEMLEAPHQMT

The target of one data set is VDR:RXRa (Homo sapiens, UniProt P11473;P19793 full;full). Briefly: no ligand; PBM; 270 nM : 90 nM RXRa; PBS pH 7.4, 2% milk, 0.02% Triton X-100, 1 mM DTT, BSA, 0.4 mg/ml salmon testes DNA. To be noted: tags: His kept;His cleaved; copies: 1;1; label: surface-attached array probe. In a few lines: (§1)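 Ligand-free nuclear receptor dimers were applied to custom Agilent 4×180K protein-binding microarrays whose double-stranded probes carried direct-repeat seeds, single-nucleotide variants, half-site ablations and random human genomic background sequences in 34-nt variable regions. Incubation lasted 1 h. Binding z-scores were computed against the random background probes from regression-normalized fluorescence.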
VDR:RXRa, sequence (P11473 whole entry, chain 1 of 2): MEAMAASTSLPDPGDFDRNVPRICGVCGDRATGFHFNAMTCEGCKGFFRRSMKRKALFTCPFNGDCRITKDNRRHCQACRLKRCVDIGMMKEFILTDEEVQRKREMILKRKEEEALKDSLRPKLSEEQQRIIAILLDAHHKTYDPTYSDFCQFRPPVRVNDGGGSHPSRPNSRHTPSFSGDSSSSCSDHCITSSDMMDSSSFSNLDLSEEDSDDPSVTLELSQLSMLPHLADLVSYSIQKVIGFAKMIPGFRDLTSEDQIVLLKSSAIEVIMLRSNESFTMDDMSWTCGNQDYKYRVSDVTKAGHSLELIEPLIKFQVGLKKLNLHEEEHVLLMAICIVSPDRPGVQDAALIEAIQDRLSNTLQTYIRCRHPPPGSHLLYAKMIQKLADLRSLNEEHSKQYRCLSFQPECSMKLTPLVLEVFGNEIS
VDR:RXRa, sequence (P19793 whole entry, chain 2 of 2): as the sequence (P19793 whole entry, chain 2 of 2) above
In the case of B1, the binding signal is -0.14 PBM z-score against 500 random probes. B2: the binding signal was 0.31 PBM z-score against 500 random probes. The same measure, in the same setting: to B3 belongs 0.21 PBM z-score against 500 random probes; to B4, 0.17 PBM z-score against 500 random probes. Same read-out and setting: for B5 the value was 0.16 PBM z-score against 500 random probes. Still for that read-out and setting: for B6 the value was 0.25 PBM z-score against 500 random probes.

On to B7, for which the binding signal is 8.2 PBM z-score against 500 random probes. Same read-out and setting: for B8 the value was 0.33 PBM z-score against 500 random probes; for B9, -0.41 PBM z-score against 500 random probes. Still for that read-out and setting: to B10 belongs 0.19 PBM z-score against 500 random probes; to B11, 0.25 PBM z-score against 500 random probes; to B12, 0.28 PBM z-score against 500 random probes. The same measure, in the same setting: for B13 the value was 0.2 PBM z-score against 500 random probes; for B14, -0.62 PBM z-score against 500 random probes.

As to B15, the binding signal was -0.08 PBM z-score against 500 random probes.

Turning to B16, the binding signal is -0.83 PBM z-score against 500 random probes. Consider B17, for which the binding signal is 0.14 PBM z-score against 500 random probes.

In the case of B18, the binding signal is -0.38 PBM z-score against 500 random probes. Same read-out and setting: to B19 belongs -0.03 PBM z-score against 500 random probes; to B20, -0.19 PBM z-score against 500 random probes; to B21, -0.61 PBM z-score against 500 random probes. Same read-out and setting: for B22 the value was -0.46 PBM z-score against 500 random probes. Same read-out and setting: to B23 belongs -0.3 PBM z-score against 500 random probes; to B24, 0.44 PBM z-score against 500 random probes. With B25, the binding signal is 3.28 PBM z-score against 500 random probes.

For B26, the binding signal is 0.02 PBM z-score against 500 random probes. The same measure, in the same setting: to B27 belongs 0.23 PBM z-score against 500 random probes; to B28, 0.15 PBM z-score against 500 random probes. The same measure, in the same setting: for B29 the value was -0.54 PBM z-score against 500 random probes. Still for that read-out and setting: to B30 belongs -1.25 PBM z-score against 500 random probes.

Another data set has as its target PPARa:RXRa (Homo sapiens, UniProt Q07869;P19793 full;full). Described as above. Conditions: tags: GST kept;His cleaved; copies: 1;1; label: surface-attached array probe. In outline: as §1
In the case of B2, the binding signal was -0.07 PBM z-score against 500 random probes. Still for that read-out and setting: for B7 the value was 6.55 PBM z-score against 500 random probes; for B17, 0.42 PBM z-score against 500 random probes. Same read-out and setting: for B19 the value was 0.12 PBM z-score against 500 random probes; for B23, -0.52 PBM z-score against 500 random probes. Same read-out and setting: to B25 belongs 3.07 PBM z-score against 500 random probes.
